{
  "source": "paper PMC3683068",
  "test_in_all_cases": "two-hybrid; mammalian two-hybrid in HEK-293 cells; GAL4-ASK1 fragments in pBIND, VP16-Nef in pACT, pG5luc reporter; firefly luciferase/Renilla 48 hrs after transfection, fold over the pACT-pBIND negative control",
  "key": {"[1]": {"target": "ASK1 (1-1051 aa), GAL4 fusion (UniProt Q99683)"}, "[2]": {"target": "ASK1 (1-1051 aa), GAL4 fusion (UniProt Q99683)", "remark": "listed apart in the source"}, "[3]": {"target": "ASK1 (1-345 aa), GAL4 fusion (UniProt Q99683)"}, "[4]": {"target": "ASK1 (861-1051 aa), GAL4 fusion (UniProt Q99683)"}, "[5]": {"target": "ASK1 (1-1051 aa), GAL4 fusion (UniProt Q99683)", "remark": "listed apart in the source"}, "[6]": {"target": "ASK1 (1-904 aa), GAL4 fusion (UniProt Q99683)"}, "[7]": {"target": "ASK1 (1-1051 aa), GAL4 fusion (UniProt Q99683)", "remark": "listed apart in the source"}, "[8]": {"target": "ASK1 (1-904 aa), GAL4 fusion (UniProt Q99683)", "remark": "listed apart in the source"}, "[9]": {"target": "ASK1 (319-1051 aa), GAL4 fusion (UniProt Q99683)"}},
  "note": "Where two headings read alike, the source gives them in different places.",
  "data": [
    {"substance": "HIV-1 Nef (57-174 aa), VP16 fusion (domain or fragment)", "values": [
      {"measurement": "fold increase in luciferase/renilla over pACT-pBIND", "setting": "[1]", "result": 81.7, "unit": "fold"}
    ]},
    {"substance": "HIV-1 Nef core domain (57-207 aa), VP16 fusion (domain or fragment)", "values": [
      {"measurement": "fold increase in luciferase/renilla over pACT-pBIND", "setting": "[2]", "result": 156, "unit": "fold"},
      {"measurement": "fold increase in luciferase/renilla over pACT-pBIND", "setting": "[3]", "result": 2.05, "unit": "fold"},
      {"measurement": "fold increase in luciferase/renilla over pACT-pBIND", "setting": "[4]", "result": 2.93, "unit": "fold"},
      {"measurement": "fold increase in luciferase/renilla over pACT-pBIND", "setting": "[5]", "result": 162, "unit": "fold"},
      {"measurement": "fold increase in luciferase/renilla over pACT-pBIND", "setting": "[6]", "result": 9.15, "unit": "fold"},
      {"measurement": "fold increase in luciferase/renilla over pACT-pBIND", "setting": "[1]", "result": 153, "unit": "fold"},
      {"measurement": "fold increase in luciferase/renilla over pACT-pBIND", "setting": "[7]", "result": 157, "unit": "fold"},
      {"measurement": "fold increase in luciferase/renilla over pACT-pBIND", "setting": "[8]", "result": 8.75, "unit": "fold"},
      {"measurement": "fold increase in luciferase/renilla over pACT-pBIND", "setting": "[9]", "result": 2.83, "unit": "fold"}
    ]}
  ]
}
